# From patent publication US20210355194A1 (TWIST BIOSCIENCE, published 2021)
# Target: CV S-protein construct 6 trimer TP31001F (SARS-CoV-2, UniProt P0DTC2 14-1208)
# Assay: SPR
row,Binder,Kd
1,variant 6-23 (Fc fusion) VHH: EVQLVESGGGLVQPGGSLRLSCAASGSIFSMNTMGWFRQAPGKEREFVALINRSGGGINYADSVKGRFTISADNSKNTAYLQMNSLKPEDTAVYYCVRLSSGYYDFDYWGQGTLVTVSS,0.3 nM
2,variant 5-42 (Fc fusion) VHH: EVQLVESGGGLVQPGGSLRLSCAASGFTPDDYAMGWFRQAPGKEREFVASIGYSGRSNSYNYYADSVKGRFTISADNSKNTAYLQMNSLKPEDTAVYYCAIAHGSSTYNWGQGTLVTVSS,0.6 nM
3,variant 5-59 (Fc fusion) VHH: EVQLVESGGGLVQPGGSLRLSCAASGLTFSLYRMCWFRQAPGKEREEVSCISNIDGSTYYADSVKGRFTISADNSKNTAYLQMNSLKPEDTAVYYCAADLLGDSDYEPSSGFGWGQGTLVTVSS,6.4 nM
4,variant 5-67 (Fc fusion) VHH: EVQLVESGGGLVQPGGSLRLSCAASGFNVNDYAMGWFRQAPGKEREFVAGITSSVGVTNYADSVKGRFTISADNSKNTAYLQMNSLKPEDTAVYYCAADIFFVNWGRGTLVTVSS,1 nM
5,variant 6-13 (Fc fusion) VHH: EVQLVESGGGLVQPGGSLRLSCAASGLTFNDYAMGWFRQAPGKEREFVAHIPRSTYSPYYADSVKGRFTISADNSKNTAYLQMNSLKPEDTAVYYCAFLVGPQGVDHGAFDVWGQGTLVTVSS,0.6 nM
6,variant 5-65 (Fc fusion) VHH: EVQLVESGGGLVQPGGSLRLSCAASGNIDRLYAMGWFRQAPGKEREGVAAIDSDGSTDYADSVKGRFTISADNSKNTAYLQMNSLKPEDTAVYYCAALIDYGLGFPIEWGQGTLVTVSS,421 nM
7,variant 5-35 (Fc fusion) VHH: EVQLVESGGGLVQPGGSLRLSCAASGPTFSIYAMGWFRQAPGKERELVAGISWNGGSTNYADSVKGRFTISADNSKNTAYLQMNSLKPEDTAVYYCALRRRFGGQEWGQGTLVTVSS,16 nM
8,variant 5-68 (Fc fusion) VHH: EVQLVESGGGLVQPGGSLRLSCAASGFTFDHYTMGWFRQAPGKEREFVAAISGSENVTSYADSVKGRFTISADNSKNTAYLQMNSLKPEDTAVYYCAAEPYIPVRTMRHMTFLTWGQGTLVTVSS,4.8 nM
9,variant 6-10 (Fc fusion) VHH: EVQLVESGGGLVQPGGSLRLSCAASGSIASIHAMGWFRQAPGKEREFVAAISRSGGFGSYADSVKGRFTISADNSKNTAYLQMNSLKPEDTAVYYCARDDKYYDSSGYPAYFQHWGQGTLVTVSS,0.6 nM
10,variant 5-53 (Fc fusion) VHH: EVQLVESGGGLVQPGGSLRLSCAASGLTVVPYAMGWFRQAPGKEREFVAAIRRSAVTNYADSVKGRFTIIADNSKNTAYLLMNSLKPEDTAVYYCAARRWGYHYWGQGTLVTVSS,684 nM
11,variant 6-16 (Fc fusion) VHH: EVQLVESGGGLVQPGGSLRLSCAASGFTFDDAAMGWFRQAPGKEREFVAHISWSGGSTYYADSVKGRFTISADNSKNTAYLQMNSLKPEDTAVYYCATFGATVTATNDAFDIWGQGTLVTVSS,2.2 nM
12,variant 6-6 (Fc fusion) VHH: EVQLVESGGGLVQPGGSLRLSCAASGTTLDYYAMGWFRQAPGKERELVAAISWSGGSTAYADSVKGRFTISADNSKNTAYLQMNSLKPEDTAVYYCAREDYYDSSGYSWGQGTLVTVSS,67.7 nM
13,variant 6-5 (Fc fusion) VHH: EVQLVESGGGLVQPGGSLRLSCAASGRTFTMGWFRQAPGKEREFVASTNSAGSTNYADSVNGRFTISADNSKNTAYLQMNSLKPEDTAVYYCTTVDQYFDYWGQGTLVTVSS,0.8 nM
14,variant 5-56 (Fc fusion) VHH: EVQLVESGGGLVQPGGSLRLSCAASGRTFSSNMGWFRQAPGKEREFVARIFGGDRTLYADSVKGRFTISADNSKNTAYLQMNSLKPEDTAVYYCADINGDWGQGTLVTVSS,2.8 nM
15,variant 6-1 (Fc fusion) VHH: EVQLVESGGGLVQPGGSLRLSCAASGRTFGNYNMGWFRQAPGKEREFVATINSLGGTSYADSVKGRFTISADNSKNTAYLQMNSLKPEDTAVYYCARVDYYMDVWGQGTLVTVSS,1.2 nM
16,variant 6-18 (Fc fusion) VHH: EVQLVESGGGLVQPGGSLRLSCAASGLTFRNYAMGWFRQAPGKEREFIAGMMWSGGTTTYADSVKGRFTISADNSKNTAYLQMNSLKPEDTAVYYCAREGYYYDSSGYLNYFDYWGQGTLVTVSS,5.3 nM
17,variant 6-4 (Fc fusion) VHH: EVQLVESGGGLVQPGGSLRLSCAASGFTRDYYTMGWFRQAPGKEREFVAAISRSGSLTSYADSVKGRFTISADNSKNTAYLQMNSLKPEDTAVYYCANLAYYDSSGYYDYWGQGTLVTVSS,0.5 nM

row,Binder,Kd
1,variant 6-17 (Fc fusion) VHH: EVQLVESGGGLVQPGGSLRLSCAASGNTGSTGYMGWFRQAPGKEREMVAGVINDGSTVYADSVKGRFTISADNSKNTAYLQMNSLKPEDTAVYYCARLATSHQDGTGYLFDYWGQGTLVTVSS,0.6 nM
2,variant 5-32 (Fc fusion) VHH: EVQLVESGGGLVQPGGSLRLSCAASGFTPDNYAMGWFRQAPGKEREFVAALGWSGVTTYHYYADSVKGRFTISADNSKNTAYLQMNSLKPEDTAVYYCASDESDAANWGQGTLVTVSS,0.1 nM
3,variant 5-49 (Fc fusion) VHH: EVQLVESGGGLVQPGGSLRLSCAASGRTSTVNGMGWFRQAPGKEREFVASISQSGAATAYADSVKGRFTISADNSKNTAYLQMNSLKPEDTAVYYCAADRTYSYSSTGYYWGQGTLVTVSS,3.4 nM
4,variant 5-47 (Fc fusion) VHH: EVQLVESGGGLVQPGGSLRLSCAASGFTFGSYDMGWFRQAPGKEREFVTAINWSGARTAYADSVKGRFTISADNSKNTAYLQMNSLKPEDTAVYYCAARSVYSYEYNWGQGTLVTVSS,0.7 nM
5,"variant 6-20 (Fc fusion, VHH-Fc) VHH: EVQLVESGGGLVQPGGSLRLSCAASGSTLPYHAMGWFRQAPGKEREFVAAITWNGASTSYADSVKGRFTISADNSKNTAYLQMNSLKPEDTAVYYCARDRYYDTSASYFESETWGQGTLVTVSS",0.3 nM
6,variant 6-15 (Fc fusion) VHH: EVQLVESGGGLVQPGGSLRLSCAASGSTVLINAMGWFRQAPGKEREFVAAVRWSDDYTYYADSVKGRFTISADNSKNTAYLQMNSLKPEDTAVYYCAKEGRAGSLDYWGQGTLVTVSS,9050 nM
7,variant 5-52 (Fc fusion) VHH: EVQLVESGGGLVQPGGSLRLSCAASGEKFSDHWMGWFRQAPGKEREFVATITFSGARTAYADSVKGRFTISADNSKNTAYLQMNSLKPEDTAVYYCAALIKPSSTDRIFEEWGQGTLVTVSS,0.9 nM
8,variant 6-22 (Fc fusion) VHH: EVQLVESGGGLVQPGGSLRLSCAASGRTFSEVVMGWFRQAPGKEREFVATIHSSGSTSYADSVKGRFTISADNSKNTAYLQMNSLKPEDTAVYYCVRVTSDYSMDSWGQGTLVTVSS,1.8 nM
9,variant 6-12 (Fc fusion) VHH: EVQLVESGGGLVQPGGSLRLSCAASGSTYTTYSMGWFRQAPGKEREFVAAISGSENVTSYADSVKGRFTISADNSKNTAYLQMNSLKPEDTAVYYCARVDDYMDVWGQGTLVTVSS,1.4 nM
10,variant 6-14 (Fc fusion) VHH: EVQLVESGGGLVQPGGSLRLSCAASGITFRFKAMGWFRQAPGKEREFVAAVSWDGRNTYYADSVKGRFTISADNSKNTAYLQMNSLKPEDTAVYYCASDYYYMDVWGQGTLVTVSS,466 nM
11,variant 5-60 (Fc fusion) VHH: EVQLVESGGGLVQPGGSLRLSCAASGRSFSSHRMGWFRQAPGKEREFVAAIMWSGSHRNYADSVKGRFTISADNSKNTAYLQMNSLKPEDTAVYYCAAIAYEEGVYRWDWGQGTLVTVSS,0.8 nM
12,"variant 5-37 (Fc fusion, VHH-Fc) VHH: EVQLVESGGGLVQPGGSLRLSCAASGSTFSINAMGWFRQAPGKEREFVGGISRSGATTNYADSVKGRFTISADNSKNTAYLQMNSLKPEDTAVYYCAADGVPEYSDYASGPVWGQGTLVTVSS",1.8 nM
13,variant 6-2 (Fc fusion) VHH: EVQLVESGGGLVQPGGSLRLSCAASGFTMSSSWMGWFRQAPGKEREFVTVISGVGTSYADSVKGRFTISADNSKNTAYLQMNSLKPEDTAVYYCARGPDSSGYGFDYWGQGTLVTVSS,1.2 nM
14,variant 6-19 (Fc fusion) VHH: EVQLVESGGGLVQPGGSLRLSCAASGSILSIAVMGWFRQAPGKEREFVAAISPSAVTTYYADSVKGRFTISADNSKNTAYLQMNSLKPEDTAVYYCAIGYYDSSGYFDYWGQGTLVTVSS,1 nM
15,variant 5-64 (Fc fusion) VHH: EVQLVESGGGLVQPGGSLRLSCAASGTSISNRVMGWFRQAPGKERELVARIYTGGDTLYADSVKGRFTISADNSKNTAYLQMNSLKPEDTAVYYCAARKIYRSLSYYGDYDWGQGTLVTVSS,221 nM
16,variant 5-55 (Fc fusion) VHH: EVQLVESGGGLVQPGGSLRLSCAASGIDVNRNAMGWFRQAPGKEREFVAAITWSGGWRYYADSVKGRFTISADNSKNTAYLQMNSLKPEDTAVYYCATTFGDAGIPDQYDFGWGQGTLVTVSS,0.6 nM
17,variant 5-63 (Fc fusion) VHH: EVQLVESGGGLVQPGGSLRLSCAASGFSLDYYDMGWFRQAPGKEREFVAALGWSGGSTDYADSVKGRFTISADNSKNTAYLQMNSLKPEDTAVYYCAAGNGGRYGIVERWGQGTLVTVSS,0.4 nM
